According to publication doi:10.1101/2023.08.11.549911:
One block for each substance: values may come before it.

Legend:
[1] = target: LRRK2 R1441G, full-length, N-terminal Strep-FLAG (SF) tagged (human) (UniProt Q5S007); assay: native gel or EMSA
[2] = target: LRRK2 G2019S, full-length, N-terminal Strep-FLAG (SF) tagged (human) (UniProt Q5S007); assay: native gel or EMSA; details: remark: other sources report otherwise
[3] = target: Leucine-rich repeat kinase 2 (LRRK2), full-length wild type, N-terminal Strep-FLAG (SF) tagged (human) (UniProt Q5S007); assay: mass photometry; details: remark: other sources report otherwise

stoichiometry N [1]: 2
Substance: LRRK2 R1441G, full-length, N-terminal Strep-FLAG (SF) tagged, Q5S007 1-2527

stoichiometry N [2]: 2
Substance: LRRK2 G2019S, full-length, N-terminal Strep-FLAG (SF) tagged, Q5S007 1-2527

Kd [3]: 200 nM
Substance: Leucine-rich repeat kinase 2 (LRRK2), full-length wild type, N-terminal Strep-FLAG (SF) tagged, Q5S007 1-2527
